Measurements from the FLAb antibody collection (doi:10.7554/elife.23156).

B1: scFv; the commonest letter at each place (parent)
chain 1: EVKLDETGGGLVQPGRPMKLSCVASGFTFSDYWMNWVRQSPEKGLEWVAQIRNKPYNYETYYSDSVKGRFTISRDDSKSSVYLQMNNLRVEDMGIYYCTGSYYGMDYWGQGTSVTVS
chain 2: DVVMTQTPLSLPVSLGDQASISCRSSQSLVHSNGNTYLRWYLQKPGQSPKVLIYKVSNRFSGVPDRFSGSGSGTDFTLKISRVEAEDLGVYFCSQSTHVPWTFGGGTKLEIK

Assays:
fluorescein = variants of: B1; test: Kd (Tite-Seq); conditions: with fluorescein; format: scFv 4-4-20, heavy + light
[1] = variants of: B1; test: yeast surface expression (ratio to wild type); higher = more expressed; conditions: format: scFv 4-4-20, heavy + light

| Kd (fluorescein) [µM] | Variant | yeast surface expression [1] |
| --- | --- | --- |
| ≥ 10 | chain 1 Y102H Y107K | 1.05 |
| ≥ 10 | chain 1 Y32R M34W V37M | 0.728 |
| 0.00917 | chain 1 Y102D W108T | 0.785 |
| 0.000604 | chain 1 Y102D W108M | 0.926 |
| ≥ 10 | chain 1 Y102G D106Y | 0.496 |
| ≥ 10 | chain 1 Y102R Y107N | 0.81 |
| ≥ 10 | chain 1 Y102G M105C | 0.828 |
| ≥ 10 | chain 1 Y102G M105V | 1.02 |
| ≥ 10 | chain 1 Y102E G104N | 0.819 |
| ≥ 10 | chain 1 Y102E G104E | 0.934 |
| ≥ 10 | chain 1 Y102K G109I | 0.226 |
| ≥ 10 | chain 1 Y102K G109Y | 0.342 |
| ≥ 10 | chain 1 Y102R Y103P | 0.979 |
| ≥ 10 | chain 1 Y102E M105A | 0.815 |
| ≥ 10 | chain 1 Y102E M105P | 0.839 |
| ≥ 10 | chain 1 Y32P V37G | 2.54 |
| ≥ 10 | chain 1 Y32P V37Y | 0.716 |
| ≥ 10 | chain 1 Y32P W36K | 0.563 |
| ≥ 10 | chain 1 Y32P W36C | 0.649 |
| ≥ 10 | chain 1 Y102Q Y107C | 0.353 |
| 2.01 | chain 1 Y102Q Y107H | 1.01 |
| ≥ 10 | chain 1 Y32T V37G | 1.64 |
| ≥ 10 | chain 1 Y32T V37H | 0.624 |

| Kd (fluorescein) [µM] | Variant | yeast surface expression [1] |
| --- | --- | --- |
| ≥ 10 | chain 1 Y32T V37E | 0.222 |
| ≥ 10 | chain 1 Y32T V37A | 0.65 |
| ≥ 10 | chain 1 Y102M G104M | 0.472 |
| ≥ 10 | chain 1 Y32W W36Q | 0.936 |
| ≥ 10 | chain 1 Y32W W36A | 0.204 |
| ≥ 10 | chain 1 Y102L Y107C G109A | 0.168 |
| 0.0302 | chain 1 Y102K Y107I | 1 |
| 0.0233 | chain 1 Y102K Y107H | 0.909 |
| 6.96 | chain 1 Y102K Y107K | 0.846 |
| 0.923 | chain 1 Y102K Y107R | 0.991 |
| ≥ 10 | chain 1 Y102I Y103E G109K | 0.364 |
| ≥ 10 | chain 1 Y32Q M34I | 0.765 |
| ≥ 10 | chain 1 Y102G G109K | 0.336 |
| 5.1 | chain 1 Y102E Y103A | 0.993 |
| ≥ 10 | chain 1 Y102E Y103I | 0.862 |
| ≥ 10 | chain 1 Y102G Y103K G109K | 0.425 |
| 0.0729 | chain 1 Y102F Y103I | 0.793 |
| ≥ 10 | chain 1 Y102F M105C W108T | 0.419 |
| ≥ 10 | chain 1 Y102N M105C | 1.22 |
| ≥ 10 | chain 1 Y32S N35E V37Q | 0.677 |
| ≥ 10 | chain 1 Y32V M34D | 0.218 |
| ≥ 10 | chain 1 Y32V M34Q | 0.849 |
| ≥ 10 | chain 1 Y102G Y107F W108K | 0.71 |

| Kd (fluorescein) [µM] | Variant | yeast surface expression [1] |
| --- | --- | --- |
| ≥ 10 | chain 1 Y102M D106A W108A | 0.612 |
| 7.72 | chain 1 Y32Q W33V N35E | 1.51 |
| ≥ 10 | chain 1 Y102K G104L D106G | 0.302 |
| 0.0132 | chain 1 Y102K Y103D | 1.24 |
| 1.14 | chain 1 Y102K Y103M | 1.08 |
| 0.00251 | chain 1 Y102S M105K | 1.02 |
| 0.0038 | chain 1 Y102S M105N | 1.31 |
| 4.14 | chain 1 Y102N Y103C | 0.692 |
| ≥ 10 | chain 1 Y102E G109N | 0.382 |
| ≥ 10 | chain 1 Y102E G109K | 0.317 |
| 0.0146 | chain 1 Y102H W108A | 0.528 |
| ≤ 0.000316 | chain 1 Y102H W108M | 0.91 |
| ≥ 10 | chain 1 Y102H G109W | 0.254 |
| ≥ 10 | chain 1 Y102H G109P | 0.281 |
| ≥ 10 | chain 1 Y32R W36V | 0.547 |
| 7.72 | chain 1 Y32R W36Y | 0.635 |
| ≥ 10 | chain 1 Y32Q W36V | 0.479 |
| 3.04 | chain 1 Y102L D106E | 1.26 |
| ≥ 10 | chain 1 Y102L D106R | 0.344 |
| ≥ 10 | chain 1 Y102L D106W | 0.238 |
| ≥ 10 | chain 1 Y102L D106G | 0.569 |
| 8.13 | chain 1 Y32S V37F | 0.891 |
| ≥ 10 | chain 1 Y32S N35H | 0.89 |

| Kd (fluorescein) [µM] | Variant | yeast surface expression [1] |
| --- | --- | --- |
| ≥ 10 | chain 1 Y32P N35Y | 0.488 |
| 0.195 | chain 1 Y32P N35K | 0.466 |
| 0.000504 | chain 1 Y102A W108P | 0.525 |
| ≥ 10 | chain 1 Y102N D106E | 1.27 |
| ≥ 10 | chain 1 Y102P G104S M105H | 0.325 |
| ≥ 10 | chain 1 Y102Q G104T | 0.546 |
| ≥ 10 | chain 1 Y102Q G104L | 0.667 |
| ≥ 10 | chain 1 Y102Q G104H | 0.672 |
| ≥ 10 | chain 1 Y102F G104K | 0.81 |
| ≥ 10 | chain 1 Y102F G104H | 0.927 |
| ≥ 10 | chain 1 Y102M M105K D106W | 0.527 |
| ≥ 10 | chain 1 Y102E D106M | 0.531 |
| ≥ 10 | chain 1 Y102E D106S | 1.01 |
| ≥ 10 | chain 1 Y32T W36R | 0.193 |
| ≥ 10 | chain 1 Y32T M34E | 0.451 |
| 4.14 | chain 1 Y102A Y103K | 1.15 |
| ≥ 10 | chain 1 Y102A Y103E | 1.23 |
| ≥ 10 | chain 1 Y32S N35G V37K | 0.649 |
| ≥ 10 | chain 1 Y102C G104D | 0.919 |
| ≥ 10 | chain 1 Y102C G104H | 0.609 |
| ≥ 10 | chain 1 Y102A Y107P | 0.707 |
| ≥ 10 | chain 1 Y102I D106Q | 0.599 |
| 0.0146 | chain 1 Y102F M105R | 1.2 |

| Kd (fluorescein) [µM] | Variant | yeast surface expression [1] |
| --- | --- | --- |
| ≥ 10 | chain 1 Y102C G109R | 0.304 |
| 2.47 | chain 1 Y102C G109A | 0.619 |
| ≥ 10 | chain 1 Y102L W108Q | 0.328 |
| ≥ 10 | chain 1 Y102P M105K | 0.473 |
| ≥ 10 | chain 1 Y102P M105S | 0.416 |
| ≥ 10 | chain 1 Y102M Y103A Y107L | 0.84 |
| ≥ 10 | chain 1 Y102F G104Y W108D | 0.204 |
| ≥ 10 | chain 1 Y102M Y103F D106Y | 0.388 |
| ≥ 10 | chain 1 Y102Q D106Y | 0.268 |
| ≥ 10 | chain 1 Y102G G104L | 0.816 |
| ≥ 10 | chain 1 Y102G G104F | 0.545 |
| ≥ 10 | chain 1 Y102G G104H | 1.06 |
| ≥ 10 | chain 1 Y102F G109H | 0.186 |
| ≥ 10 | chain 1 Y102F G109N | 0.27 |
| 0.195 | chain 1 Y102H Y103E | 1.17 |
| 3.94 | chain 1 Y102H Y103C | 0.682 |
| ≥ 10 | chain 1 Y102P G104Y W108S | 0.379 |
| ≥ 10 | chain 1 Y102C M105P | 0.69 |
| ≥ 10 | chain 1 Y102M W108K | 0.392 |
| ≥ 10 | chain 1 Y102Q W108Q | 0.508 |
| ≥ 10 | chain 1 Y102H M105T | 0.972 |
| ≥ 10 | chain 1 Y102H M105P | 0.764 |
| 5.96 | chain 1 Y32S W36F | 0.853 |
